According to publication PMC3335792:

Biological target: E. coli β-clamp labeled with OregonGreen488 (E. coli β-clamp^OG) (E. coli), P0A988
Assay: other fluorescence titration; OregonGreen488-labeled β-clamp (50 or 100 nM in the methods, 90 nM in the legend) titrated with the partner protein; 20 mM Tris-Cl pH 7.5, 8 mM MgCl2, 1 mM DTT, 0.2 mM EDTA, 50 mM NaCl, 0.5 mM ATP, 22°C; emission at 510 nm; apparent Kd
Details: remark: other sources report otherwise

Sequence of E. coli β-clamp labeled with OregonGreen488 (E. coli β-clamp^OG) (E. coli), P0A988 (P0A988 whole entry): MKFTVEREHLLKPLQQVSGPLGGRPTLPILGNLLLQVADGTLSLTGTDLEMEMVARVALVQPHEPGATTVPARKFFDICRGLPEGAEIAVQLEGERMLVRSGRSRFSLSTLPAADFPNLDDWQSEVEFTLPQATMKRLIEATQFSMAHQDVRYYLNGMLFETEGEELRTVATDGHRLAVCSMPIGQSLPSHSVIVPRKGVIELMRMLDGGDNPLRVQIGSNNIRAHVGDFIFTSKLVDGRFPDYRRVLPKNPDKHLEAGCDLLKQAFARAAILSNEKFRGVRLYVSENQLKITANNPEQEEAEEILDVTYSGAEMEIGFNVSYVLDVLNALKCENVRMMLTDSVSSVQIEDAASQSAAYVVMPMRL

B1: E. coli NAD+-dependent DNA ligase (E. coli LigA), P15042 1-671 (enzyme)
chain: MESIEQQLTELRTTLRHHEYLYHVMDAPEIPDAEYDRLMRELRELETKHPELITPDSPTQRVGAAPLAAFSQIRHEVPMLSLDNVFDEESFLAFNKRVQDRLKNNEKVTWCCELKLDGLAVSILYENGVLVSAATRGDGTTGEDITSNVRTIRAIPLKLHGENIPARLEVRGEVFLPQAGFEKINEDARRTGGKVFANPRNAAAGSLRQLDPRITAKRPLTFFCYGVGVLEGGELPDTHLGRLLQFKKWGLPVSDRVTLCESAEEVLAFYHKVEEDRPTLGFDIDGVVIKVNSLAQQEQLGFVARAPRWAVAFKFPAQEQMTFVRDVEFQVGRTGAITPVARLEPVHVAGVLVSNATLHNADEIERLGLRIGDKVVIRRAGDVIPQVVNVVLSERPEDTREVVFPTHCPVCGSDVERVEGEAVARCTGGLICGAQRKESLKHFVSRRAMDVDGMGDKIIDQLVEKEYVHTPADLFKLTAGKLTGLERMGPKSAQNVVNALEKAKETTFARFLYALGIREVGEATAAGLAAYFGTLEALEAASIEELQKVPDVGIVVASHVHNFFAEESNRNVISELLAEGVHWPAPIVINAEEIDSPFAGKTVVLTGSLSQMSRDDAKARLVELGAKVAGSVSKKTDLVIAGEAAGSKLAKAQELGIEVIDEAEMLRLLGS
modifications: here or on the partner: OregonGreen488 label (residue not stated)
Kd: 42.5 nM
